Measurements reported in PMC9519967.

Biological target: His-tagged Grb3-3 SH2 domain and C-terminal SH3 domain (SH2Δ40CSH3) (human) (UniProt P62993)
Assay: MST

Kd [µM]	Substance
145	Sos-C-Tail-6 truncated peptide (without GST) (from UniProt Q07889)
297	Sos-C-Tail-8 truncated peptide (without GST) (from UniProt Q07889)
